# Substitutions are numbered along the chain they refer to.
# B1: HC-85/LC-85 ADC (Ab85 conjugated to an amatoxin) (antibody, V domains shown)
# VH: EVQLVQSGAEVKKPGESLKISCKGSGYSFTNYWIGWVRQMPGKGLEWMAIINPRDSDTRYRPSFQGQVTISADKSISTAYLQWSSLKASDTAMYYCARHGRGYEGYEGAFDIWGQGTLVTVSS
# VL: DIQMTQSPSSLSASVGDRVTITCRSSQGIRSDLGWYQQKPGKAPKLLIYDASNLETGVPSRFSGSGSGTDFTLTISSLQPEDFATYYCQQANGFPLTFGGGTKVEIK
# modifications: antibody conjugated to an amatoxin; site not stated
# B2: HC-77/LC-77 anti-CD117-ADC (conjugated to an amatoxin) (antibody, V domains shown)
# VH: QVQLVQSGAAVKKPGESLKISCKGSGYRFTTYWIGWVRQMPGKGLEWMGIIYPGDSDTRYSPSFQGQVTISAGKSISTAYLQWSSLKASDTAMYYCARHGRGYNGYEGAFDIWGQGTMVTVSS
# VL: DIQLTQSPSSLSASVGDRVTITCRASQGVISALAWYQQKPGKAPKLLIYDASILESGVPSRFSGSGSGTDFTLTISSLQPEDFATYYCQQFNSYPLTFGGGTKVEIK
# modifications: antibody conjugated to an amatoxin; site not stated
# B3: HC-245/LC-245 anti-CD117-ADC (conjugated to an amatoxin) (antibody, V domains shown)
# VH: B2 VH with Q1E, A10E, Y32S, G73D, R101L, M118L
# VL: B2 VL with L4M, V29I, I30G, I53T, S93G, G100Q, K103R, V104L
# modifications: antibody conjugated to an amatoxin; site not stated
# B4: HC-81/LC-81 anti-CD117-ADC (conjugated to an amatoxin) (antibody, V domains shown)
# VH: B2 VH
# VL: B2 VL with I53T
# modifications: antibody conjugated to an amatoxin; site not stated
# B5: HC-247/LC-247 anti-CD117-ADC (conjugated to an amatoxin) (antibody, V domains shown)
# VH: B2 VH
# VL: DIQMTQSPSSLSASVGDRVTITCRASRGISDYLAWYQQKPGKAPKLLIYDASNLETGVPSRFSGSGSGTDFTLTISSLQPEDFATYYCQQANSFPITFGQGTRLEIK
# modifications: antibody conjugated to an amatoxin; site not stated
# B6: HC-246/LC-246 anti-CD117-ADC (conjugated to an amatoxin) (antibody, V domains shown)
# VH: B2 VH
# VL: B2 VL with L4M, V29I, I30G, I53T, S93G, G100Q, K103R, V104L
# modifications: antibody conjugated to an amatoxin; site not stated
# B7: HC-79/LC-79 anti-CD117-ADC (conjugated to an amatoxin) (antibody, V domains shown)
# VH: B2 VH
# VL: B2 VL with I30G
# modifications: antibody conjugated to an amatoxin; site not stated
# B8: HC-248/LC-248 anti-CD117-ADC (conjugated to an amatoxin) (antibody, V domains shown)
# VH: B2 VH with Q1E, A10E, Y32S, G73D, R101L, M118L
# VL: B2 VL with L4M, V29I, I30G, I53T, F91L, S93G, G100Q, K103R, V104L
# modifications: antibody conjugated to an amatoxin; site not stated
# B9: HC-85/LC-85 (Ab85) (antibody, V domains shown)
# VH: B1 VH
# VL: B1 VL
# notes: Purified IgG, hIgG1/hKappa; also called Antibody 85
# B10: HC-245/LC-245 (Ab245) (antibody, V domains shown)
# VH: B2 VH with Q1E, A10E, Y32S, G73D, R101L, M118L
# VL: B2 VL with L4M, V29I, I30G, I53T, S93G, G100Q, K103R, V104L
# notes: IgG on anti-human Fc sensors; hIgG1/hKappa
# B11: HC-248/LC-248 (Ab248) (antibody, V domains shown)
# VH: B2 VH with Q1E, A10E, Y32S, G73D, R101L, M118L
# VL: B2 VL with L4M, V29I, I30G, I53T, F91L, S93G, G100Q, K103R, V104L
# notes: as for B10
# B12: HC-247/LC-247 (Ab247) (antibody, V domains shown)
# VH: B2 VH
# VL: B5 VL
# notes: as for B10
# B13: HC-79/LC-79 (Ab79) (antibody, IgG1, V domains shown)
# VH: B2 VH
# VL: B2 VL with I30G
# notes: Purified human antibody tested as an IgG1; hIgG1/hKappa; also called Antibody 79
# B14: HC-249/LC-249 (Ab249) (antibody, V domains shown)
# VH: B2 VH with Q1E, A10E, Y32S, G73D, R101L, M118L
# VL: B5 VL with R27Q, S30G, D31S, Y32A, A91L, S93G, F94Y, I96L
# notes: as for B10
# B15: HC-81/LC-81 (Ab81) (antibody, IgG1, V domains shown)
# VH: B2 VH
# VL: B2 VL with I53T
# notes: Purified human antibody tested as an IgG1; hIgG1/hKappa; also called Antibody 81
# B16: HC-246/LC-246 (Ab246) (antibody, V domains shown)
# VH: B2 VH
# VL: B2 VL with L4M, V29I, I30G, I53T, S93G, G100Q, K103R, V104L
# notes: as for B10
# B17: HC-77/LC-77 (Ab77) (antibody, IgG1, V domains shown)
# VH: B2 VH
# VL: B2 VL
# notes: Purified human antibody tested as an IgG1; hIgG1/hKappa; also called Antibody 77
# B18: HC-1/LC-1 (Ab1) (antibody, IgG1, V domains shown)
# VH: B2 VH
# VL: B2 VL with D1A, I30S, I53S
# notes: Purified IgG (IgG1); also called 001; CK6 derivative Ab1
# B19: HC-25/LC-25 (Ab25) (antibody, IgG1, V domains shown)
# VH: QIQLVQSGPELKKPGESVKISCKASGYTFTDYAIHWVKQAPGQGLRWMAWINTETGKPTYADDFKGRFVFSLEASASTAHLQISNLKNEDTATFFCAGGSHWFAYWGQGTLVTVSS
# VL: SYELIQPPSASVTLENTVSITCSGDELSNKYAHWYQQKPDKTILEVIYNDSERPSGISDRFSGSSSGTTAILTIRDAQAEDEADYYCLSTFSDDDLPIFGGGTKLTVL
# notes: From rat immunization/hybridoma; purified IgG in BLI; also called 025
# B20: HC-22/LC-22 (Ab22) (antibody, IgG1, V domains shown)
# VH: QVQLKESGPGLVQPSQTLSLTCTVSGFSLTSYLVHWVRQPPGKTLEWVGLMWNDGDTSYNSALKSRLSISRDTSKSQVFLKMHSLQAEDTATYYCARESNLGFTYWGHGTLVTVSS
# VL: DIQMTQSPASLSASLEEIVTITCKASQGIDDDLSWYQQKPGKSPQLLIYDVTRLADGVPSRFSGSRSGTQYSLKISRPQVADSGIYYCLQSYSTPYTFGAGTKLELK
# notes: From rat immunization/hybridoma; purified IgG in BLI; also called 022
# B21: HC-27/LC-27 (Ab27) (antibody, IgG1, V domains shown)
# VH: EVQLVESGGGLVQPGRSMKLSCKASGFTFSNYDMAWVRQAPTRGLEWVASISYDGITAYYRDSVKGRFTISRENAKSTLYLQLVSLRSEDTATYYCTTEGGYVYSGPHYFDYWGQGVMVTVSS
# VL: DIQMTQSPSSMSVSLGDTVTITCRASQDVGIFVNWFQQKPGRSPRRMIYRATNLADGVPSRFSGSRSGSDYSLTISSLESEDVADYHCLQYDEFPRTFGGGTKLELK
# notes: From rat immunization/hybridoma; purified IgG in BLI; also called 027
# B22: HC-24/LC-24 (Ab24) (antibody, IgG1, V domains shown)
# VH: EVQLVESGGGLVQSGRSLKLSCAASGFTVSDYYMAWVRQAPTKGLEWVATINYDGSTTYHRDSVKGRFTISRDNAKSTLYLQMDSLRSEDTATYYCARHGDYGYHYGAYYFDYWGQGVMVTVSS
# VL: DIVLTQSPALAVSLGQRATISCRASQTVSLSGYNLIHWYQQRTGQQPKLLIYRASNLAPGIPARFSGSGSGTDFTLTISPVQSDDIATYYCQQSRESWTFGGGTNLEMK
# notes: From rat immunization/hybridoma; purified IgG in BLI; also called 024
# B23: HC-21/LC-21 (Ab21) (antibody, IgG1, V domains shown)
# VH: QIQLVQSGPELKKPGESVKISCKASGYTFTDYAVYWVIQAPGKGLKWMGWINTYTGKPTYADDFKGRFVFSLETSASTANLQISNLKNEDTATYFCARGAGMTKDYVMDAWGRGVLVTVS
# VL: SYELIQPPSASVTLGNTVSLTCVGDELSKRYAQWYQQKPDKTIVSVIYKDSERPSDISDRFSGSSSGTTATLTIHGTLAEDEADYYCLSTYSDDNLPVFGGGTKLTVL
# notes: From rat immunization/hybridoma; purified IgG in BLI; also called 021
# Target: T1, CD117 on Kasumi-1 cells and primary human CD34+ bone marrow cells (human, UniProt P10721 26-976)
# Assay: cell-based or functional assay
# T1 sequence (P10721 26-976): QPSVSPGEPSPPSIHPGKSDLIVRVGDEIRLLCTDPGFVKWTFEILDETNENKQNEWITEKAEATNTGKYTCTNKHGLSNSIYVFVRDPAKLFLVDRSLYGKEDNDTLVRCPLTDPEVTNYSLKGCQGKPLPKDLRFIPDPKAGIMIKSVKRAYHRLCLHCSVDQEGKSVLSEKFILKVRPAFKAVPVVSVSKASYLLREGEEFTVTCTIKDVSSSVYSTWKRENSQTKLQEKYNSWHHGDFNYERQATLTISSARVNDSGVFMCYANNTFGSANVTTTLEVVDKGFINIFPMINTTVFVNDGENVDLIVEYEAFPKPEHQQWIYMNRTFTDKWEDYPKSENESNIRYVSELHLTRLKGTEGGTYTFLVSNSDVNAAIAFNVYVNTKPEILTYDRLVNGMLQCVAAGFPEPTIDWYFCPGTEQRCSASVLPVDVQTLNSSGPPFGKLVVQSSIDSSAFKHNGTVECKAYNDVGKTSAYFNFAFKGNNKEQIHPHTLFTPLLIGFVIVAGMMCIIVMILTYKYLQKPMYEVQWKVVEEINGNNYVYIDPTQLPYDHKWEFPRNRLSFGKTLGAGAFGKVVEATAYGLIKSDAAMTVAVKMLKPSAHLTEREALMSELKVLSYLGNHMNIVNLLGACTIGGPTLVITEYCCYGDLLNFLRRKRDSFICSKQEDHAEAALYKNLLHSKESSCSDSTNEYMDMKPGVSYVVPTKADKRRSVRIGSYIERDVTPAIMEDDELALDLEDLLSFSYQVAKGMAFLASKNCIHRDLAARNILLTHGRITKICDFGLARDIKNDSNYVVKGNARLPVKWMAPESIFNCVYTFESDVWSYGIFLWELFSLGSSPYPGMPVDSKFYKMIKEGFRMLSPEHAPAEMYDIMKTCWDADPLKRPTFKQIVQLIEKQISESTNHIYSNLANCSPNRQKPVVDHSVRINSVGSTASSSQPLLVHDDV
row,Binder,"IC50 (M), Kasumi-1 cell killing (Celltiter Glo, 3 days)"
1,B1,1.76e-11 M

# Target: T1, CD117 on Kasumi-1 cells and primary …
# Assay: cell-based or functional assay
# Remark: another data set of the same source
Binder,"% efficacy, killing of primary human CD34+CD90+ cells","IC50, killing of primary human CD34+CD90+ cells (5 days, flow cytometry counts)"
B1,71.2%,0.00574 nM
B2,54.4%,0.00694 nM
B3,76.4%,0.00578 nM
B4,68.7%,0.00377 nM
B5,55.4%,0.00837 nM
B6,67.8%,0.00453 nM
B7,63.4%,0.00709 nM
B8,47.8%,0.00646 nM

# Target: T2, purified human CD117 ectodomain (R&D Systems #332-SR) (human, UniProt P10721 26-524)
# T2 construct: extracellular domain; Bought protein; also called c-kit; purified recombinant human CD117 ectodomain
# Assay: BLI; kdis compared to HC-1/LC-1 (Ab1)
# T2 sequence (P10721 26-524): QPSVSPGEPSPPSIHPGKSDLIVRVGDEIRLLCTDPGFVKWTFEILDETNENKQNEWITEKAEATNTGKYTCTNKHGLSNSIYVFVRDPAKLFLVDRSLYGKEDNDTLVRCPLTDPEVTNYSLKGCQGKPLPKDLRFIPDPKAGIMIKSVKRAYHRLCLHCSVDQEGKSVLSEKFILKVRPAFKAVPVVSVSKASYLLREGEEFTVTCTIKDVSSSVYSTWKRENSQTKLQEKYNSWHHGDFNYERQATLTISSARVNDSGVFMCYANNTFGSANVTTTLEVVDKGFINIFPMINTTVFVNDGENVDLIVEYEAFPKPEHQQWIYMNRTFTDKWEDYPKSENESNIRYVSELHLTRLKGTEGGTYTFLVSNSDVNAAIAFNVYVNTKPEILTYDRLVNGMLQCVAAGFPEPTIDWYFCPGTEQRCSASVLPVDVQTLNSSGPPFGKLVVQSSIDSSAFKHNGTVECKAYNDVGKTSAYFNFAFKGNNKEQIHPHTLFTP
row,Binder,Fold improvement (off-rate)
1,B9,5.2 fold
2,B10,7.9 fold
3,B11,7.1 fold
4,B12,3.6 fold
5,B13,4.7 fold
6,B14,12 fold
7,B15,9 fold
8,B16,8.9 fold
9,B17,10.5 fold

# Target: T2, purified human CD117 ectodomain (R&D …)
# Assay: BLI, IgG on anti-human Fc sensor, 33 and 11 nM ectodomain;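 further: Kd, kon and koff are apparent values, with Kd reported as the apparent monovalent affinity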
Binder,Kd,koff,kon
B9,0.835 nM,0.000434 s⁻¹,520000 M⁻¹ s⁻¹
B10,0.813 nM,0.000285 s⁻¹,350000 M⁻¹ s⁻¹
B11,0.922 nM,0.000319 s⁻¹,346000 M⁻¹ s⁻¹
B12,1.68 nM,0.00063 s⁻¹,374000 M⁻¹ s⁻¹
B13,1.52 nM,0.000478 s⁻¹,316000 M⁻¹ s⁻¹
B14,0.551 nM,0.000189 s⁻¹,344000 M⁻¹ s⁻¹
B18,4.09 nM,0.00227 s⁻¹,556000 M⁻¹ s⁻¹
B15,0.877 nM,0.000252 s⁻¹,288000 M⁻¹ s⁻¹
B16,0.708 nM,0.000255 s⁻¹,361000 M⁻¹ s⁻¹
B17,0.684 nM,0.000215 s⁻¹,315000 M⁻¹ s⁻¹

# Target: T2, purified human CD117 ectodomain (R&D …)
# Assay: BLI, purified IgG on sensor, soluble ectodomain; apparent monovalent
Binder,Kd,koff,kon
B19,0.52 nM,0.00153 s⁻¹,2.94e+06 M⁻¹ s⁻¹
B20,0.0964 nM,0.000221 s⁻¹,2.29e+06 M⁻¹ s⁻¹
B18,2.81 nM,0.000848 s⁻¹,302000 M⁻¹ s⁻¹
B21,0.53 nM,0.000378 s⁻¹,712000 M⁻¹ s⁻¹
B22,0.986 nM,0.00011 s⁻¹,111000 M⁻¹ s⁻¹
B23,0.715 nM,0.000437 s⁻¹,612000 M⁻¹ s⁻¹

# Target: T2, purified human CD117 ectodomain (R&D …)
# Assay: BLI (Octet Red96), IgG on anti-human Fc sensor, 33.3 and 11 nM ectodomain
Binder,Kd,koff,kon
B9,0.835 nM,0.000434 s⁻¹,520000 M⁻¹ s⁻¹
B18,4.09 nM,0.00227 s⁻¹,556000 M⁻¹ s⁻¹

# Target: T3, purified rhesus CD117 ectodomain (rhesus, UniProt F6V858 26-524)
# T3 construct: extracellular domain; also called rhesus antigen
# Assay: BLI, purified IgG on sensor, soluble rhesus ectodomain; apparent monovalent
Binder,Kd,koff,kon
B19,0.81 nM,0.00195 s⁻¹,2.41e+06 M⁻¹ s⁻¹
B20,0.0891 nM,0.000155 s⁻¹,1.74e+06 M⁻¹ s⁻¹
B21,0.89 nM,0.000275 s⁻¹,309000 M⁻¹ s⁻¹
B22,19.6 nM,0.000777 s⁻¹,39700 M⁻¹ s⁻¹
B23,0.869 nM,0.000357 s⁻¹,410000 M⁻¹ s⁻¹

# Target: T2, purified human CD117 ectodomain (R&D …)
# Assay: BLI (Octet Red96), IgG1 on anti-human Fc sensor, 33.3 and 11 nM ectodomain, 1:1 fit
Binder,Kd,koff,kon
B13,1.52 nM,0.000478 s⁻¹,316000 M⁻¹ s⁻¹
B18,3.1 nM,0.0013 s⁻¹,420000 M⁻¹ s⁻¹
B15,0.877 nM,0.000252 s⁻¹,288000 M⁻¹ s⁻¹
B17,0.684 nM,0.000215 s⁻¹,315000 M⁻¹ s⁻¹

# Source: patent US20240360238A1 (MAGENTA THERAPEUTICS, published 2024)
